Drawing on article PMC5346689, this text covers stoichiometry N for 3 substances.

Common to all, as to assay: SEC; HiLoad 26/60 Superdex 75 prep grade column; buffer B (20 mM MES, 50 mM NaCl, 10 mM CaCl2, pH 7.0); oligomeric state of each purified S100A4 protein in solution
Background: SEC sorts molecules by how far they enter the pores of the column.

Experiment [1] addresses S100A4 C-terminal Ca2+ binding site mutant N65I/D67A (UniProt P26447).
The target of experiment [2] is S100A4 N-terminal Ca2+-binding site mutant E23A/D25A (UniProt P26447).
Experiment [3] concerns the target recombinant wild-type S100A4 (UniProt P26447).

For orientation: stoichiometry N means a count of units in the complex or per binding partner. With “S100A4 C-terminal Ca2+ binding site mutant N65I/D67A (from UniProt P26447 1-101) (natural protein)”, in experiment [1], the stoichiometry N was determined as 2.
In experiment [2], “S100A4 N-terminal Ca2+-binding site mutant E23A/D25A (from UniProt P26447 1-101) (natural protein)” returned a stoichiometry N of 2.
“recombinant wild-type S100A4 (from UniProt P26447 1-101) (natural protein)”: in experiment [3], the stoichiometry N amounted to 2.
